Data as given in patent US20180230213A1 (AVEO PHARMACEUTICALS, published 2018).

What was measured:
rhNotch1-Fc = molecular target: T1, rhNotch1-Fc (human, UniProt P46531 19-526); test: BLI (Octet QK): rhNotch1-Fc loaded on anti-human-Fc sensors, then antibody 4F11 in solution
T1 construct: also called human Notch1 protein; R&D Cat. No. 3647-TK-050
Method: Antibody 4F11 was tested for binding to human Notch1, human Notch2, or human Notch3 proteins. Binding measurements were made by biolayer interferometry (BLI), using a FortéBio Octet® QK instrument (FortéBio, Menlo Park, Calif.). Anti-human-Fc sensors were soaked in PBS containing 1 mg/ml BSA for five minutes prior to binding of antibodies. Then the following proteins (400 nM, in PBS containing 1 mg/ml BSA) were allowed to bind to the sensors: rhNotch1-Fc (R&D Systems, Minneapolis, Minn.; Cat. No. 3647-TK-050), rhNotch2-Fc (R&D Cat. No. 3735-NT-050), rhNotch3-Fc (R&D Cat. No. 1559-NT-050), or rmNotch3-Fc (R&D Cat. No. 1308-NT-050). Notch protein bound sensors were immersed in antibody solution (50 μg/ml) to allow binding of antibody to the Notch protein. Binding was detected by shifts in the interference pattern.

[1] = molecular target: T2, human Notch3 on the cell surface (human, UniProt Q9UM47 40-2321); test: FACS on CHO N3 cells (human Notch3), 4 C, one site binding fit
T2 construct: whole, on cells; the cells carry the full length protein; also called cell surface human Notch3; hNotch3
Method: (§1) Binding to cell surface human Notch3 by the antibody 4F11 was measured at 4° C., using Fluorescence Activated Cell Sorting (FACS). CHO N3 (Flp-In-CHO cells (Invitrogen) stably transfected with human Notch3), HCC2429 cells, and RL-952 cells expressing human Notch3 were washed once with PBS containing calcium chloride and magnesium chloride (Invitrogen) and harvested using cell dissociation buffer (Invitrogen). Cells were washed a second time with PBS and resuspended in FACS buffer (PBS with 0.5% BSA (Sigma-Aldrich)) for a final cell concentration of 250,000 cells per well into a 96-well v-bottom plate. Purified antibodies were diluted in FACS buffer over a concentration range of 100 nM to 0.1 nM. Cells were then incubated at 4° C. with […] of antibody for one hour, washed with FACS buffer twice, and resuspended in […] of goat-anti mouse PE-conjugated antibody (Jackson Immuno Research). Cells were incubated at 4° C. for 30 minutes in the dark, washed once with FACS buffer, and then analyzed using a Beckman Coulter Cytomics FC 500 instrument. The geometric mean of the florescent intensity was then calculated for each antibody concentration. These values were then entered into Prism software (GraphPad, La Jolla, Calif.) and used to generate a binding curve by plotting geometric mean versus antibody concentration. […]

[2] = molecular target: T2, human Notch3 on the cell surface; test: cell-based or functional assay
[3] = molecular target: T2, human Notch3 on the cell surface; test: FACS on HCC2429 cells (human Notch3), 4 C, one site binding fit
Method: as §1

[4] = molecular target: T2, human Notch3 on the cell surface; test: FACS on RL-952 cells (human Notch3), 4 C, one site binding fit
Method: as §1

[5] = molecular target: T3, recombinant human Notch3 extracellular domain (containing EGF like domains 1-11) Fc fusion protein (human, UniProt Q9UM47 40-467); test: SPR Biacore T100, 4F11 captured by anti-mouse IgG, rhNotch3-Fc analyte, 37 C
T3 construct: domain: EGF like domains 1-11; also called rhNotch3-Fc; rhNotch3
T3 sequence (looked up): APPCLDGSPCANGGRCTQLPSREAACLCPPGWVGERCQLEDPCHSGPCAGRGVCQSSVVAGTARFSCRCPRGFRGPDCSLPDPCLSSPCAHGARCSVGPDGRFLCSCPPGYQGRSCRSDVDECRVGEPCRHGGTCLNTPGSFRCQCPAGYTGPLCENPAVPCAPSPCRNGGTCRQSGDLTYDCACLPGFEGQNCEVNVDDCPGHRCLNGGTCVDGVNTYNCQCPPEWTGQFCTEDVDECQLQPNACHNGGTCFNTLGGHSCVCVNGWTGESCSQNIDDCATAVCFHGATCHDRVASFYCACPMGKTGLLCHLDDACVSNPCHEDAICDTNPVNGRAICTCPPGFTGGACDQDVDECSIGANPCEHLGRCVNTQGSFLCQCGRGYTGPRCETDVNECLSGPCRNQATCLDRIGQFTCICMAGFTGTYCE
Method: The binding affinity and kinetics of binding of antibody 4F11 to recombinant human Notch3 extracellular domain (containing EGF like domains 1-11) Fc fusion protein (rhNotch3-Fc (R&D Systems, Inc., Minneapolis, Minn.)) were measured by surface plasmon resonance using a Biacore® T100 instrument (GE Healthcare, Piscataway, N.J.).
Rabbit anti-mouse IgGs (GE Healthcare) were immobilized on carboxymethylated dextran CM4 sensor chips (GE Healthcare) by amine coupling, according to a standard protocol. Analyses were performed at 25° C. and 37° C. using PBS containing 0.05% surfactant P20 as running buffer. The antibody was captured in individual flow cells at a flow rate of 10 μl/minute. Injection time was varied for each antibody to yield an Rmax between 30 and 60 resonance units (RU). Buffer or rhNotch3-Fc diluted in running buffer was injected sequentially over a reference surface (no antibody captured) and the active surface (antibody to be tested) for 240 seconds at 60 μl/minute. The dissociation phase was monitored for up to 1500 seconds. The surface was then regenerated with two 60-second injections of 10 mM Glycine-HCl, pH 2.25, at a flow rate of 30 μl/minute. The rhNotch3-Fc concentration range tested was 100 nM to 3.125 nM (2 fold dilution).
Kinetic parameters were determined using the kinetic function of the BIAevaluation software (GE Healthcare) with double reference subtraction. Kinetic parameters for the antibody, kₐ (association rate constant), kd (dissociation rate constant) and KD (equilibrium dissociation constant) were determined.

binding result (rhNotch1-Fc): no binding
Kd [1]: 0.36 nM
EC50, inhibition of Notch3-dependent reporter activity stimulated by DLL1 [2]: 6 nM
EC50, inhibition of Notch3-dependent reporter activity stimulated by DLL4 [2]: 4.7 nM
EC50, inhibition of Notch3-dependent reporter activity stimulated by Jag1 [2]: 2.6 nM
EC50, inhibition of Notch3-dependent reporter activity stimulated by Jag2 [2]: 0.4 nM
Kd [3]: 2.58 nM
Kd [4]: 0.963 nM
Kd [5]: 0.78 nM
koff [5]: 5.7e-05 s⁻¹
kon [5]: 75000 M⁻¹ s⁻¹
B1: antibody 4F11 (murine monoclonal anti-human Notch3) (antibody, mouse IgG1, kappa, V domains shown)
VH: EVQLVESGGGLVKPGGSLKLSCAASGFAFSSYDMSWVRQTPEKRLEWVAYISRGGGSTYYPDTVKGRFTISRDNAKNTLYLQMSSLKSEDTAMYYCGRHATTAYWYFDVWGAGTTVTVSS
VL: DVVMTQTPLSLPVSLGDQASISCRSSQSLVHTNGNTYLHWYLQKPGQSPKLLIYKVSNRFSGVPDRFSGSGSGTDFTLKISRVEAEDLGVYFCSQSTHVPWTFGGGTKLEIKR
notes: Mouse IgG1 kappa purified from hybridoma; also called mu4F11; murine 4F11
